Experimental data as given in the supplement of paper PMC10567573.

B1: S100A14 (parent)
chain: KIANLGSCNDSKLEFRSFWELIGE

Variants of: B1
Test: protein stability index of a GFP-peptide fusion (GPS, HEK-293T) (PSI 1-6); higher = more stable
Details: c terminus: a fixed tail appended
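Also: lentivirally expressed fusions sorted by FACS into six bins by GFP to DsRed ratio, PSI derived from sequencing read proportions per bin multiplied by bin number.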

Variant | protein stability index
KIACLGSCNDSKLEFRSFWELIGE [N4C] | 1.75
KIAWLGSCNDSKLEFRSFWELIGE [N4W] | 2.55
KIAGLGSCNDSKLEFRSFWELIGE [N4G] | 2.83
KIANLGSCNDSKLEFRSFSELIGE [W19S] | 1.87
KIANLGSCNDSKLEFRSFEELIGE [W19E] | 3.25
KIANLGSCNDSKLEFRSFFELIGE [W19F] | 2.03
KIANLGSCNDSKLEFRSFLELIGE [W19L] | 1.56
KIANLGSCNDSKLEFRSFTELIGE [W19T] | 2.29
KIANLGSCNDSKLEFRSFCELIGE [W19C] | 1.46
KIANLGSCNDSKLEFRSFYELIGE [W19Y] | 1.78
KIANLGSCMDSKLEFRSFWELIGE [N9M] | 1.97
KIANLGSCQDSKLEFRSFWELIGE [N9Q] | 1.77
KIANLGSCSDSKLEFRSFWELIGE [N9S] | 1.08
KIANLGSCGDSKLEFRSFWELIGE [N9G] | 2.22
EIANLGSCNDSKLEFRSFWELIGE [K1E] | 1.84
HIANLGSCNDSKLEFRSFWELIGE [K1H] | 1.61
TIANLGSCNDSKLEFRSFWELIGE [K1T] | 2.13
CIANLGSCNDSKLEFRSFWELIGE [K1C] | 1.92
KIANLGSCNDSKLEFWSFWELIGE [R16W] | 2.25
KIANLGSCNDSKLEFTSFWELIGE [R16T] | 1.61
KIANLGSCNDNKLEFRSFWELIGE [S11N] | 2.21
KIANLGSCNDPKLEFRSFWELIGE [S11P] | 2.81
KIANLGSCNDKKLEFRSFWELIGE [S11K] | 1.69
KIANLGSCNDHKLEFRSFWELIGE [S11H] | 1.62

Variant | protein stability index
KIANLGSCNDSKLEFRSFWTLIGE [E20T] | 1.59
KIANLGSCNDSKLEFRSFWGLIGE [E20G] | 1.4
KIANLGSCNDSKLEFRSFWILIGE [E20I] | 2.29
KIANLGSRNDSKLEFRSFWELIGE [C8R] | 2.07
KIANLGSENDSKLEFRSFWELIGE [C8E] | 1.97
KIANLGSCNDSKLECRSFWELIGE [F15C] | 1.75
KIANLGSCNDSKLEIRSFWELIGE [F15I] | 2.24
KIANLGSCNDSKLEFRSFWELTGE [I22T] | 2.25
KIANLGSCNDSKLEFRSFWELVGE [I22V] | 1.79
KIANLGSCNDSKLEFRSFWELPGE [I22P] | 2.29
KIANLGSCNDSKLEFRSHWELIGE [F18H] | 2.82
KIANLGSCNDSKLEFRSEWELIGE [F18E] | 2.66
KIANLGSCNDSKLEFRSQWELIGE [F18Q] | 1.98
KIANLGSCNDSKLEFRSWWELIGE [F18W] | 2.16
KIANLGSCNDSKLEFRSIWELIGE [F18I] | 1.85
KIANLGSCNDSKLEFRSVWELIGE [F18V] | 1.52
KIANLGSCNRSKLEFRSFWELIGE [D10R] | 1.74
KIANLGSCNASKLEFRSFWELIGE [D10A] | 1.66
KIANLGSCNISKLEFRSFWELIGE [D10I] | 1.72
KIANLGSCNFSKLEFRSFWELIGE [D10F] | 1.92
KIANLGSCNTSKLEFRSFWELIGE [D10T] | 1.95
KICNLGSCNDSKLEFRSFWELIGE [A3C] | 1.62
KIWNLGSCNDSKLEFRSFWELIGE [A3W] | 2.28
KIPNLGSCNDSKLEFRSFWELIGE [A3P] | 1.23

Variant | protein stability index
KINNLGSCNDSKLEFRSFWELIGE [A3N] | 1.54
KIRNLGSCNDSKLEFRSFWELIGE [A3R] | 1.33
KIANLESCNDSKLEFRSFWELIGE [G6E] | 2.06
KIANLMSCNDSKLEFRSFWELIGE [G6M] | 2.51
KIANLKSCNDSKLEFRSFWELIGE [G6K] | 3.01
KIANLHSCNDSKLEFRSFWELIGE [G6H] | 1.5
KIANLWSCNDSKLEFRSFWELIGE [G6W] | 2.21
KIANLGSCNDSKLSFRSFWELIGE [E14S] | 1.8
KIANLGSCNDSKLRFRSFWELIGE [E14R] | 2.7
KIANLGSCNDSKLWFRSFWELIGE [E14W] | 1.08
KIANHGSCNDSKLEFRSFWELIGE [L5H] | 1.88
KIANLGSCNDSYLEFRSFWELIGE [K12Y] | 3
KIANLGSCNDSHLEFRSFWELIGE [K12H] | 2.35
KIANLGSCNDSELEFRSFWELIGE [K12E] | 3.21
KIANLGSCNDSKHEFRSFWELIGE [L13H] | 2.12
KIANLGSCNDSKAEFRSFWELIGE [L13A] | 2.17
KIANLGSCNDSKIEFRSFWELIGE [L13I] | 2.13
KIANLGSCNDSKKEFRSFWELIGE [L13K] | 2.04
KIANLGSCNDSKGEFRSFWELIGE [L13G] | 2.18
KIANLGSCNDSKQEFRSFWELIGE [L13Q] | 1.92
KIANLGSCNDSKNEFRSFWELIGE [L13N] | 1.88
KIANLGSCNDSKLEFRSFWELIGT [E24T] | 1.9
KIANLGSCNDSKLEFRSFWELIGA [E24A] | 2.15
KIANLGSCNDSKLEFRSFWELIGM [E24M] | 2.27

Variant | protein stability index
KIANLGSCNDSKLEFRSFWELIGN [E24N] | 2.17
KIANLGTCNDSKLEFRSFWELIGE [S7T] | 1.71
KIANLGDCNDSKLEFRSFWELIGE [S7D] | 1.96
KIANLGYCNDSKLEFRSFWELIGE [S7Y] | 1.83
KIANLGSCNDSKLEFRSFWECIGE [L21C] | 1.62
KIANLGSCNDSKLEFRSFWEIIGE [L21I] | 1.54
KIANLGSCNDSKLEFRSFWEHIGE [L21H] | 1.9
KIANLGSCNDSKLEFRSFWEGIGE [L21G] | 2.33
KIANLGSCNDSKLEFRSFWENIGE [L21N] | 2.55
KIANLGSCNDSKLEFRSFWEKIGE [L21K] | 1.86
KQANLGSCNDSKLEFRSFWELIGE [I2Q] | 1.32
KLANLGSCNDSKLEFRSFWELIGE [I2L] | 1.8
KVANLGSCNDSKLEFRSFWELIGE [I2V] | 1.88
KMANLGSCNDSKLEFRSFWELIGE [I2M] | 1.99
KIANLGSCNDSKLEFRSFWELIME [G23M] | 2.25
KIANLGSCNDSKLEFRSFWELIEE [G23E] | 2.15
KIANLGSCNDSKLEFRSFWELILE [G23L] | 1.62
KIANLGSCNDSKLEFRSFWELIKE [G23K] | 1.82
KIANLGSCNDSKLEFRSFWELIAE [G23A] | 1.89
KIANLGSCNDSKLEFRSFWELIRE [G23R] | 1.45
KIANLGSCNDSKLEFRFFWELIGE [S17F] | 2.52
KIANLGSCNDSKLEFRGFWELIGE [S17G] | 1.33
